For one molecule, Kd, koff and kon results are on record in patent publication US20090292112A1 (published 2009).

Usually Kd stands for the free concentration of one partner at which half of the binding sites on the other are occupied at equilibrium, for simple one-to-one binding. A high value points to a looser complex. As a reminder, the koff is the rate constant with which the complex falls apart. Broadly, the kon is a measure of how fast the partners come together. A low value points to slower complex formation.

In the assay the target is T1, RG1 polypeptide (native RG1 protein, purified from transfected BHK cells) (human, UniProt Q9BUD6 27-331).
T1 construct: The Biacore assay used BHK-RG1; The Western blots used RG1 from COS, LNCaP and BHK cells and from lysates; also called nRG1; BHK-RG1
T1 chain: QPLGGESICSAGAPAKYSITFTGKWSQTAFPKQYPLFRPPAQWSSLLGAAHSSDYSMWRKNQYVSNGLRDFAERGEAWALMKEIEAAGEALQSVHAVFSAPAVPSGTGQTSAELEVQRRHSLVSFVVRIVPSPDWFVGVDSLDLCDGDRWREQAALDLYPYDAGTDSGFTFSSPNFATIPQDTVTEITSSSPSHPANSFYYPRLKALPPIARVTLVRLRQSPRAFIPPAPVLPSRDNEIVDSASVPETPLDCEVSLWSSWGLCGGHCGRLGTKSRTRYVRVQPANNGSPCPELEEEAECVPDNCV
As to the kind of experiment: BIAcore SPR; mab captured on anti-human IgG Fc, soluble BHK-RG1 12.5-400 nM, 1:1 Langmuir fit. As to the method:
Kinetic constants (KD, kₐ and kd) of mab binding to native RG1 protein were determined by BIAcore using a capture format in which soluble, native RG1 protein was bound to immobilized mab on a sensor chip. ImmunoPure rabbit anti-human IgGFc (Pierce, 31142) was covalently immobilized to the Sensor Chip CM5 (Biacore, BR-1000-12) using standard amine coupling methods. 100 ug/ml antibody diluted in 10 mm acetate, pH 4.0 was used at 5 ul/min. HBS-EP (Biacore, BR-1001-88) was used as mobile phase. Unreacted sites were blocked with ethanolamine. Mabs were diluted to 200 nM with HBS and 50 ul was injected per cycle at 10 ul/min. Serial dilutions of BHK-RG1 (12.5-400 nM) were bound to the immobilized mab. Dissociation kinetics were measured immediately after the antigen injection was completed at 20 ul/min for 8 minutes. The surface was regenerated following each cycle using 25 ul of 10 mm glycine, pH 1.8 and then washed with HBS.
Data were fit to a 1:1 Langmuir model using the software provided by the instrument manufacturer (BIAevaluation 3.0), and kinetic constants were calculated.
For orientation: SPR reads the build-up and loss of mass on a sensor chip optically.

B1: human RG1 monoclonal antibody B (antibody, V domains shown)
VH: EVQLVQSGGGLVMPGGSLRLSCAGSGFTFSSYVMHWLRQAPGKGLEWVSVIGTGGVTHYADSVKGRFMISRDNAKNSLYLQMNSLRAEDTAMYYCARWGYYGSGSYENDAFDIWGQGTMVTVSS
VL: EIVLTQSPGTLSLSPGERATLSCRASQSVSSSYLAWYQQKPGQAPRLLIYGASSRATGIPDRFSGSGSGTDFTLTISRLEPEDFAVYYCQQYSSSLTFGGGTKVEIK
notes: Hybridomas were screened for human IgG,kappa, and the isotype of this clone is not explicitly stated; also called M ab B
The molecule B1 showed a Kd of 8.4 nM, a koff of 0.00023 s⁻¹ and an on-rate (kon) of 29000 M⁻¹ s⁻¹.
